In the nanobody polyreactivity screen of Harvey et al. (2022):

experiment: yeast display, Sf9 membrane polyspecificity reagent, FACS + sequencing; frameworks hold sequencing errors
In short: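 A synthetic nanobody library was expressed on Saccharomyces cerevisiae BJ5465 by galactose induction for 36–48 hours. The library was stained for 1 hour at 4 °C with 10% biotinylated, detergent-solubilized Sf9 membrane reagent and enriched with streptavidin microbeads before FACS. Low and high (top ~1%) gates were set on anti-HA fluorescence for expression and streptavidin fluorescence for reagent binding, and each polyreactivity label reflects the gate of origin.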

| Sequence | polyreactivity (PSR sort gate) |
| --- | --- |
| QVQLVESGGGLVQAGGSLRLSSAASGGIFFYNTMGWYRQAPGKERELVAAITTNGDSTYYADSVKGRFTISRDTAKYTVYLQMNSLKPEDTAVYYCAAGRRWARWLFPSRYDYWGQGTQVTVSS | low polyreactivity |
| QVQHVESGGGLVQAGGSLRLSCAASGRIFYLNAMGWYREAPGKERELVAAINTSGDSTYYADSVKGRFTISRDNAKNTVYLQMNSLKPVDTAVFYCAAYVIGPDQFIYDYWGQGTQVTVSS | low polyreactivity |
| QVQLVESGGGLVQAGGSLRLSCAASGIIFPYNAMGWYTQAPGKERELVAAITGGGSTYYADSVKGRFTISRDNAKNTVYLQMNSLKPEDTAVYYCAADRSGPGYDYWGQGTQVTVSS | low polyreactivity |
| QVQLVESGGGLVQAGGSLRLSCAASGIIFGSYAMGWSRQAPGKERELVAAISYSGSTFYADSVKGRFTISRDNAKNTVYLQMNSLKPEDTAVYYCNADRYAKWYRKYRPNDYWGQGTQVTVSS | high polyreactivity |
| QVQLVESGGGLVQAGGSLRLSCAASGRIFWINAMGWYRQATGKERELVATISSGSTSYADSVKGRFTISRDNAKNTVYLQMNSLKPEDTAVYYCAVTLRYTRSGAYDYWGQGTQVTVSS | low polyreactivity |
| QDQLVESGGGLVQAGGSLRLSGAASGSTFGGNAMGWYRQAPGKERELVAAISSSGGSTYYADSVKGRFTISRDNAKYSVYLQMNRLKPEDTAVYYCAAMYHWTYDYWGQGTQVTVSS | low polyreactivity |
| QVQLVESGGGLVQAGGSLRLSCAASGITFNAYAMGWYRQAPGKERELVAAITSSGSSTYYADSVKGRFTISRDYAKNTVYLQMNSLKPDDTAVYYCAATRGTKFYWGQGTQVTVSS | high polyreactivity |
| QVQLVESGGGLVQAGGSLRLSCAASGFTFYYYAMGWYRQAPGKERELVAAISSGGSTNYADSVKGRFTISRDNAKNTVYLPRNSLKPEDTAVYYCAAPQPYWWAYRYDYWGQGTQVTVSS | low polyreactivity |
| QVQLVESGGGLVQAGGSLRLSCAASGYIFAPYAMGWYRQAPGKERELVAAISSGGSTYYADSVKGRFTISRDNAKNTVYLQKNSQKPEDPAVYYCAKRYIYSYYWGQGTQVTVSS | high polyreactivity |
| QVQLVESGGGLVQAGGSLGLSCAASGRIFGVYAMGWYRQAPGTERELVAAIWSGGSTYYADSVKGRFTISRDNAKNTVYLQMNSLKPEDTAVYYCAADDAYSHRSLYSHNDYWGQGTQVTVSS | low polyreactivity |
| QVQLVESGGCLVQAGGSLRLSCAASGFTFTKYAMGWYRQAPGQERELVAAINRSGRTYYADSVKGRFTISRDNAKNTVYLQMNSLKPEDTAVYYCAADTRYQYSAYDYWGQGTQVTVSS | high polyreactivity |
| QVQLVESGGGLVQAGGSLRLSCAASGFIFSYYAMGWYRQAPGTERELVAVITFSVGSPYYADSVKGRFTISRDNAQNTVYLLMNSLKPEDTAVYYCAARSYACAKRAYYYWGQGTQVTVSS | high polyreactivity |
| QVQLVESGGGLVQAGGSLRLICAASGRTFRGYAMGWYRQAPGNERELVAAITKSGGSTYYADSVKGRFTISRDNEKNTVYFQMNSLKPEDTAVYYCAKLRSSRDYDYWGQGTQVTVSS | high polyreactivity |
| QVQLVESGGGLVQAGGRLRLSCAASGSTIGKYVMGLYRQAPGKERELVAAITNIAGSTYYADSVKGRFTISRDTAKNTVYVQLNSLNPEDTAVYYCAADIEEYYGFDDYDYSYNDYDYWGQGTQVTVSS | high polyreactivity |
| QVQHVESGGGLVQAGGSLRLSCAASGFIFSSYAIGWYRQAPGKEREFVASIRRRGGSTYYAYSVKGRFTISRDNAKNTVILQMNRLIPEDTAVYYCAREVYRHFAPVGYDYWGQGTQVTVSS | high polyreactivity |
| QVQLVESGGGLVQAGGSLRLSCAASGSTFRYYAMGWYRQAPGKERELVAAISRSGTSTYYADSVKGRFTISRDNAKKTVYLQMNSLKPEDTAVYYCAADWHSKIGKGYDYWGQGTQVTVSS | high polyreactivity |
| QVQLVESGGGLVQAGGSLRLSCAASGSIFWRNAMGWYRQAPGKEREFVAAISARGGSTYYADSVKGRFTISRDNAKNTVYLQMNSLKPEDSAVYDCAASWGLGTYSDSTYWGGYYYWGQGTQVTVSS | low polyreactivity |
| QVQLVESGGGLVQAGGRHRLSCAASGSTLTRNTMGWYRQAPGIQRELVATITRSGGSTYYADSVKGRFTISRDNAKNTVYLQMNSLKPEDTAVYYCAVRRQTFRYVYPGMDYWGQGTQETVSS | high polyreactivity |
| QVQLVESGGGLVQAGGSLRLSCAASGSTFEAYAMGWYRQAPGKERELVAAITWSSGSTYYADSVKGRFTISRDNAKNTVYLQMNSLKPEDTAVYYCNKDWLAYDSLRVPSTIAFDYWGQGTQVTVSS | low polyreactivity |
| QVQLVESGGGLVQAGGSLRLSCAASGRIFRYYTMGWYRQAPGKERELVAAINSSCGSTYYADSVKGRFTISRDNAKNTVYLQMNSLIAEDTAVYYCNAVGYTGRYQFWRVWDVHGDYWGQGNQVTVSS | high polyreactivity |
| QVHLVESGGGLVQAGGSLRLSCAASGSIFGPYAMGWYRQAPGKERELVAAITYRGDSTYYADSVKGRFTISRDYAKNTVYLQINSLKPEDTAVYYCAADYFYANYDYWGQGTQVTVSS | high polyreactivity |
| QVQHVESGGGLVQAGGSLRLSSAASGFTFYGYAMGWYRPARGNERELVATIRRSTGSTYYADSVKGRFTISRDNAKYSVYLQMNSLKPDDTAVYYCATRVWFPITSYDYWGQGTQVTVSS | low polyreactivity |

| Sequence | polyreactivity (PSR sort gate) |
| --- | --- |
| QVQLVESGGGLVQAGGSLRLSCAASGGIFSYNAMGWYRQAPGKERELVAAITSSGSTYYADSVKGRFTISRDNAKNTVYLQMNSLKPEDTAVYYCNAVKRNSWIRGYWGQGTQVTVSS | low polyreactivity |
| QVQLQESGSGLVQAGGSLRLSCAASGAIFPAYLMGWYRQAPGKERELVAGISYGSITYCADSVKGRFNISRDNAKNTVYLQMNSLKPEDTAVYYCAVWRPGVDEYYYWGQGTQVTVSS | low polyreactivity |
| QVQLVESGGGLVQAGGSLRLSCAASGNILGTYAMGWYRQAPGKERELVAAISSSVGSTYYADSVKGRFSISRDNAKKTVYLQMNSLKPEDTAVYYCAARNYQFYEKWGYLYDYWGQGTQVTVSS | low polyreactivity |
| QVQLVESGGGLVQAGGSLRLSCAASGSIFTFYAMGWYRQAPGKERELVATINRIGGNTYYADSVKGRFTISRDNAKNTVYLQMNSLKPEDTAVYYCAKLYGSANGYDYWGQGTQVSVSS | low polyreactivity |
| QVQLVESGGGLVQAGGSLRLSCAASGNTFSWYAMGWYRQAPGKERELVAVITSGGSTNYADSVKGRFTISRDNAKNTVYLQMNSLKPEDTAVYYCNKGLSRSYWWVDYWGQGTQVTVSS | low polyreactivity |
| QVQLVESGGGLDQAGGSLRLSCAASGSTFYPYAMGWYRQAPGKERDFVAAISYSAGSTYYADSVKGRFTISRDNAKNTVYLQMHSLKPEDTAVYYCADYGWYTYQTSYDYWGQGTQVTVSS | low polyreactivity |
| QVQLVQSGGGLVQAGGSLRLSCAASGSIFYDYAMGWYRQAPGKERELVAAINSGVSTSYADSVKGRFTISRDNAKNTVYLQMNSLKPEDTAVYYCAKDGSSPSPWYGGFGYWGQGTQVTVSS | low polyreactivity |
| QVQLVESGGGLVQAGGSLRLSCAASGFTFIDYAMGWYRQAPGKERELVAAISKRGGSTYYADSVKGRFTISRDNAKNSVYLQMNSLKPEDTAVYYCNAKAYHQGYLTRDDYWGQGTQVTVSS | high polyreactivity |
| QVQLVESGGGLGQAGGSLRLSCAASGSIFHPYAMGWYRQAPGKERELVASITSSGGSTYYADSVKGRFTISRDTAKNTVYLQMNSMKPEDTAVYYCNAQFLVYFYWYSTTAYIMYYWGQGTQVTVSS | low polyreactivity |
| QVQLVESGGGLVQAGGILPLSCAASGSIFVSNAMGWSRQAPGKERELVAAISSGSTYYADSVKGRFTISRDNAKNTVYLQMNSLKPEDTAVFYCIARSLLYEFDYWGQGTQVTVSS | low polyreactivity |
| QVQLVESGGGLVQAGGSLRLSCAASGFIFYKYVMAWYRQAPGKERELVAAINWSGGSTYYADSVKGRFTISRDNAKNTVYLQMNSLKPEDTAVYYCAALSQYRYDYWGQGTQVTVSS | high polyreactivity |
| QVQLVESGGGLVQAGCSLRLSCAASGITFELYAMGSYRQAPGKERELVAAISSNGGITFYADSVKGRFTISRDYAKNTVYLQMKSLKPEDTEVYYCAARYVRYPRYDYWGQGTQVTVSS | high polyreactivity |
| QDQLVESGGGIVQAGGSLRLSCAASGSTFWHNVMGWYRQAPGKERELVAAISTAGSSTYYADSVKGRFTISRDHAKNTVYLQMNSLKPEDTAVYYCAAQWPKSKYGYWGQGTQVTVSS | high polyreactivity |
| QVQLVESGGGLVQAGGSLRLSCAASGSIFDRYAMGWYRQAPGKERELVASIRQRGGSTYYADSVKGRFTISRDNAKNTVYLQMNSLKPEDTAVYYCAARKYPFRQSTYDYWGQGTQVTVSS | low polyreactivity |
| QVQLVESGGGLVQAGGSLRLSCAASGRIFGYYTMGWYRQAPGKEREFVASISTTGGSTYYADSVKGRFTISRDNAKNTVYLQMNSLKPEDTAVYYCNVYYWYGSRGSYALGKEYDYWGQGTQVTVSS | high polyreactivity |
| QVQLVESGGGLVQAGGSLRLSCAASGFTLIADDMGGYRQAPGKERELVAGISSGDSTDYADSVKGRFTISRDNAKNTVYVQMNSLTPEDTAVYYCAATWYGDYSRYDFYYWGQGTQVTVSS | low polyreactivity |
| QVQLVESGGGLVQAGGSLRLSCDASGFTFVYYAMGCYRQAPGKERELVAAISGRGGSTYYADSVKGRFTISRDNAKNTVYLQMNSLKPEDTAVYYCATTYSWYYVPYKTHIYYYWGQGTQVTVSS | low polyreactivity |
| QVQLVESGGGLVQAGGSLRLSCAPSGFTFGDYAMGWYRQSPGTESELDAAISWSGGSTYYADSVKGRFTISRDNAKTTVYLQMNSLKPEDTAVYYCAAVDSATIEDDYWGQGTQVTVSS | high polyreactivity |
| QVQLVESGGGLVQAGGSLRLSCAASGSTFQFYAMGWYRQAPGKERELVAAIDGSDGDTYYADSVKGRFTISRDNAKNTVYLQMNSLKPEDTAVYYCNADRDALVGYDYDYWGQGTQVTVSS | low polyreactivity |
| QVQLVESGGGLVQAGGSLRLSCAASGITFVYYTMGWYRQAPGKERELVASITWDGGSTYYADSVKGRFTISRDNAKNTVYLQMNSLKPEDTAVYYCNRDRVSGGKYNYWGQGTQVTVSS | low polyreactivity |
| QVQLVESGGRLVQAVGSLRLSCAASGRTFEYYNMGWYRQEPGKEREFVAANTWGGGSTSYADSVKGRFTISRDNAKNTVYLQMNSLKPEDTAVYYCAADDVYYDDDYWGQGTQVTVSS | high polyreactivity |
